We go through one molecule from patent US20240325555A1.

One assay deals with T1, rat LIV-1 (rat) (UniProt Q4V887).
T1 sequence (looked up): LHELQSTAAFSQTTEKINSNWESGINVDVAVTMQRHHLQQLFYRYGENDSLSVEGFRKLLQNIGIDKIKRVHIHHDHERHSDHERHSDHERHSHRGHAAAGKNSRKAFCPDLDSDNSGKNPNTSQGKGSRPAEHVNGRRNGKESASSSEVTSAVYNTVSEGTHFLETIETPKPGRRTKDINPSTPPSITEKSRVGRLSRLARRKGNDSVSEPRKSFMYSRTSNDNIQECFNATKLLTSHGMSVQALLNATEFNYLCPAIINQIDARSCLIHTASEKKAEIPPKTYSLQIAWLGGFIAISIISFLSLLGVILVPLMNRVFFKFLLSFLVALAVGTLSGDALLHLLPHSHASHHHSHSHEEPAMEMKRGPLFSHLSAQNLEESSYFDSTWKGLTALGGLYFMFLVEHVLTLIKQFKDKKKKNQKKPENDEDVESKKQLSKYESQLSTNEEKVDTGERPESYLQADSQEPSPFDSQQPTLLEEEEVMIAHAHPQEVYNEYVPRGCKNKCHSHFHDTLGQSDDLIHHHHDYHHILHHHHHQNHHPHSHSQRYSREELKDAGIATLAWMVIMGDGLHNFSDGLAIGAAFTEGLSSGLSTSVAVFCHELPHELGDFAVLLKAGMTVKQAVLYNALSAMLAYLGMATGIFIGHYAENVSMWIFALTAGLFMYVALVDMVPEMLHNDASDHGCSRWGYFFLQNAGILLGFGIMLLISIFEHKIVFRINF
Kind of assay: FACS, HEK293/Rat_LIV-1 cells. For orientation: A flow cytometer gives signals particle by particle.

The target in a further assay is T2, mouse LIV-1 (mouse) (UniProt Q8C145).
T2 sequence (looked up): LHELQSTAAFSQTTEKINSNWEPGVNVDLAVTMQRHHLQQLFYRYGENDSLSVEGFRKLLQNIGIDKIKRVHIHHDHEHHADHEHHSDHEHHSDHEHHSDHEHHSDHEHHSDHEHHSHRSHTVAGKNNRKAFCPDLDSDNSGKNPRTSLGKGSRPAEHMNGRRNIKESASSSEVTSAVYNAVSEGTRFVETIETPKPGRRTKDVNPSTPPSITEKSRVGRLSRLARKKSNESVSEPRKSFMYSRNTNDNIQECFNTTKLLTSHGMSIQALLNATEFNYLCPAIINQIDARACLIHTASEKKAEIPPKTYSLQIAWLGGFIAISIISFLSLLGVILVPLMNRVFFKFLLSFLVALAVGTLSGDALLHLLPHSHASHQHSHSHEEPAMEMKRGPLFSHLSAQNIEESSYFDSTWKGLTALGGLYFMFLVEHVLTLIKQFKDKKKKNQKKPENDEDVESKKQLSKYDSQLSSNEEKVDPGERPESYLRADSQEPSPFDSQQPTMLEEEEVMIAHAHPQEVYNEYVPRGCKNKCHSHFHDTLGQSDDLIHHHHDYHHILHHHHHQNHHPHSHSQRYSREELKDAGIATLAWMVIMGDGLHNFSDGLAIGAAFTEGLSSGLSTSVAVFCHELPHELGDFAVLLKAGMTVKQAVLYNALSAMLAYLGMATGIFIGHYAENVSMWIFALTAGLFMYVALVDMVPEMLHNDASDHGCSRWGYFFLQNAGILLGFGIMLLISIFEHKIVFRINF
Kind of assay: FACS, HEK293/Mouse_LIV-1 cells.

B1: 5D6B10 (antibody, V domains shown)
VH: QVQLKQSGPGLVQPSQSLSITCTVSGFSLTTYGIHWVRQSPGKGLEWLGVIWTGGTTDYNAAFISRLSISKDNSKSQVFFKMNSLQANDTAIYYCARGPSSYWGQGTLVTVSA
VL: DIVMTQSQKFMSTSVGDRVSVTCKASQNVDTNVVWYQQKPGQSPKALIHSASYRYSGVPDRFTGSGSGTDFTLTISNVQSEDLAEYFCQQYNNYPWTFGGGTKLEIK
As for B1, the Top (MFI) with rat LIV-1 (rat) stood at 150 MFI; in the assay with mouse LIV-1 (mouse), 121 MFI.
